Measured values reported in publication PMC7754295.
Values belong to the substance of their own block, whether it stands above or below them.

Assays:
Experiment in all cases: native gel or EMSA
[1] = molecular target: NpHV1‐GFP (Nicoletia phytophila voltage‐gated proton channel 1 with GFP) (Nicoletia phytophila)
[2] = molecular target: NpHV1‐GFP with C‐terminal StrepTagII (Nicoletia phytophila)
[3] = molecular target: NpHV1‐GFP with C‐terminal deca‐His Tag (Nicoletia phytophila)

- stoichiometry N [1]: 2
Substance: NpHV1‐GFP (Nicoletia phytophila voltage‐gated proton channel 1 with GFP) (natural protein)

- stoichiometry N [2]: 2
Substance: NpHV1‐GFP with C‐terminal StrepTagII (natural protein)

- stoichiometry N [3]: 2
Substance: NpHV1‐GFP with C‐terminal deca‐His Tag (natural protein)
